Results from patent publication US20210355204A1.

How the values were obtained:
Experiment in all cases: SPR competition: 4 nM TGFβ pre-mixed with TGFβ-RIIb-Fc, injected over immobilised XPA.42.089 (competitor)
[1] = target: TGFβ2 (human) (UniProt P61812)
[2] = target: TGFβ3 (human) (UniProt P10600)
[3] = target: TGFβ1 (human) (UniProt P01137)

TGFβ-RIIb-Fc recombinant receptor (from UniProt P37173 23-184) (Fc fusion)
average RU of TGFβ binding [1]: 38.2 RU
average RU of TGFβ binding [2]: -0.378 RU
average RU of TGFβ binding [3]: -0.316 RU
